Results: paper PMC11466962, “Nup358 restricts ER-mitochondria connectivity by modulating mTORC2/Akt/GSK3β signalling” (EMBO Reports, 2024)

Target: T1, GST-Nup358-MC2 (2012–2771 aa) (human, UniProt P49792 2012-2771)
T1 construct: also called GST-tagged Nup358-MC2; source: E. coli BL21 CodonPlus RIL (DE3), purified (Glutathione Agarose Beads)
Experiment: co-IP; in vitro: 2 µM MBP protein incubated with 1.5 µM GST-Nup358-MC2 in 25 mM Tris-HCl pH 7.4, 150 mM NaCl, 5% glycerol, 0.01% Tween20, 2 h, 4 °C; MBP proteins immunoprecipitated with anti-MBP antibody on Protein G Dynabeads; western blot for Nup358-MC2
Settings: both partners purified

T1 sequence (P49792 2012-2771): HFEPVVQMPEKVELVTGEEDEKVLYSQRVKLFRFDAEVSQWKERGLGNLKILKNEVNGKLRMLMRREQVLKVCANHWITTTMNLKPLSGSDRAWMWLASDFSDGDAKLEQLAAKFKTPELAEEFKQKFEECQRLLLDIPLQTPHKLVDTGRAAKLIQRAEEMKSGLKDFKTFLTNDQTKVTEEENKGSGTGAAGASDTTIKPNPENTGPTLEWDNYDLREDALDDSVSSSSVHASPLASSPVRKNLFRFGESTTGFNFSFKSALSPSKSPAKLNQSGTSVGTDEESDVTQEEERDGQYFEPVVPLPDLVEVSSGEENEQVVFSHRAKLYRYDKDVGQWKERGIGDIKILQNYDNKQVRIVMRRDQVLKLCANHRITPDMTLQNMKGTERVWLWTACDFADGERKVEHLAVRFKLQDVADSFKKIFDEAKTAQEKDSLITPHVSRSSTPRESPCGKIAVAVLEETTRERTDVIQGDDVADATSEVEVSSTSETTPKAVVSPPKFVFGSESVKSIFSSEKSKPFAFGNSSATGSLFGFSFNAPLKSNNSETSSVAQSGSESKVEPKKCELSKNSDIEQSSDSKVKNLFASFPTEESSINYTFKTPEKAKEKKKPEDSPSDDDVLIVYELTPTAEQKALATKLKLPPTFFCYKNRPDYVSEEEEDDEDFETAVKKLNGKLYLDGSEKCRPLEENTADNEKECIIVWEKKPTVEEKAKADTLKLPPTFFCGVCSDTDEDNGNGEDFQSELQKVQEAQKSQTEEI

binding result: binds
B1: MBP-PTPIP51 (36–470 aa) (domain or fragment, UniProt Q96TC7 36-470, looked up)
chain: KRTQRHGRSQSLPNSLDYTQTSDPGRHVMLLRAVPGGAGDASVLPSLPREGQEKVLDRLDFVLTSLVALRREVEELRSSLRGLAGEIVGEVRCHMEENQRVARRRRFPFVRERSDSTGSSSVYFTASSGATFTDAESEGGYTTANAESDNERDSDKESEDGEDEVSCETVKMGRKDSLDLEEEAASGASSALEAGGSSGLEDVLPLLQQADELHRGDEQGKREGFQLLLNNKLVYGSRQDFLWRLARAYSDMCELTEEVSEKKSYALDGKEEAEAALEKGDESADCHLWYAVLCGQLAEHESIQRRIQSGFSFKEHVDKAIALQPENPMAHFLLGRWCYQVSHLSWLEKKTATALLESPLSATVEDALQSFLKAEELQPGFSKAGRVYISKCYRELGKNSEARWWMKLALELPDVTKEDLAIQKDLEELEVILRD
notes: PTPIP51 (RMDN3), residues 36-470, cloned into pMAL-c2; source: E. coli BL21 Star (DE3), purified (Ni-NTA, Amylose resin); not shown: MBP, N-terminal, kept
